The values below come from the RNAGym collection of RNA variant scans (doi:10.1021/acssynbio.7b00057).

The labels stand for the following.
B1: Pistol ribozyme (parent)
chain: GGGUCGUUGUUCCAUAAUCGCGUGGAUAUGGCACGCAAGUUUCUACCGGGCACCGUAAAUGUCCGACUGGAGCCGUUCGGGCGGCUAUAAACAGACCUCAGGCCCGAAGCGUGGCGGCACCUGCCGCCGGUGGUAAAAAAGAUCGGAAGAGCACACGUCU

The variants in the series derive from B1. As to the kind of experiment: aptazyme ON/OFF ratio, guanine; higher = stronger switching; co-transcriptional cleavage with and without guanine.
For the variant U8G G9A U10C U11C C12G C13G, the “aptazyme ON/OFF ratio” value stood at 1.1. As to U7C G9U U11G C12A, the “aptazyme ON/OFF ratio” value was 1.09.

Turning to U8C G9C U11C C12U C13U, the “aptazyme ON/OFF ratio” value was 1.07. Regarding U8G G9U U10G C12A C13A, the “aptazyme ON/OFF ratio” value came to 1.03. Consider U7G U8C G9C U10C C13U, for which the “aptazyme ON/OFF ratio” value came to 1.15. As for U7G G9A C12A, the figure is 1.25; as for U7A U8C U10G U11C, 1.74; as for U7G U10C C12G, 1.26. Take U7A U8C G9C U10G U11A C12G C13U: the “aptazyme ON/OFF ratio” value is 1.08. As to U7A G9C U10C U11G C13A, the “aptazyme ON/OFF ratio” value was found to be 1.06. For U8A G9U U10G C13G, the “aptazyme ON/OFF ratio” value came to 1.13. Turning to U7C G9A U10C U11C C12G C13A, the “aptazyme ON/OFF ratio” value turned out to be 1.09.

As for U7C G9C U11G C13A, the “aptazyme ON/OFF ratio” value worked out at 1.03. On to U7A G9U U10G U11C C13G, for which the “aptazyme ON/OFF ratio” value turned out to be 1.08.

Consider U7G U8G G9C U10A U11A C12G C13G, for which the “aptazyme ON/OFF ratio” value came out at 1.05. Regarding U7C U8A G9C U10C U11G C12A C13U, the “aptazyme ON/OFF ratio” value was 1.08. As for U7C U10G C12U C13U, the figure is 1.24; as for U8A U10G U11C C12G C13U, 1.38. The figure for U7A G9U U10C U11C C12A C13A is 1.03. Turning to U7C U8C U11G C12U, the “aptazyme ON/OFF ratio” value amounted to 1.25. For U7G G9A U10A U11G C12G C13A, the “aptazyme ON/OFF ratio” value was 1.09. Take U7G U8G U10A U11G C12G C13G: the “aptazyme ON/OFF ratio” value turned out to be 1.23.

As to U7G U8C G9U U10C U11C C12G, the “aptazyme ON/OFF ratio” value was 1.16. As for U7A U8C G9A U11G C13U, the “aptazyme ON/OFF ratio” value came out at 1.22. As for U7A U8G G9U U10C C12G C13U, the “aptazyme ON/OFF ratio” value was determined as 1.68.

Take U7C U11A C12G C13A: the “aptazyme ON/OFF ratio” value was found to be 1.11.

As for U8G U10C U11G C12G C13U, the “aptazyme ON/OFF ratio” value stood at 1.2.

U7C G9A U10A U11C C12A: the “aptazyme ON/OFF ratio” value was determined as 1.13. Turning to U7A U8A G9U U10A U11C, the “aptazyme ON/OFF ratio” value was 1.08. With U8A G9C U10G C12G C13A, the “aptazyme ON/OFF ratio” value amounted to 1.23. For U7G U8A G9U U10G U11A C12U C13A, the “aptazyme ON/OFF ratio” value was 1.11. As for U7C G9A U10C C12A C13U, the “aptazyme ON/OFF ratio” value is 1.31. Regarding U7C U8G G9C C12A C13A, the “aptazyme ON/OFF ratio” value is 1.21. As for U8C G9U U11G C12A C13A, the figure is 1.16; as for U8G U10G C12U, 1.15; as for U7C U8G G9A U10G U11C C12U C13U, 1.29. For U7C G9C U10C C12U C13G, the “aptazyme ON/OFF ratio” value amounted to 1.07. U8C U10G U11G C12U C13A: the “aptazyme ON/OFF ratio” value came out at 1.11. In the case of U7G U8C G9C U10G C12G C13A, the “aptazyme ON/OFF ratio” value is 1.09.

As to U7C G9C U11A C12U C13G, the “aptazyme ON/OFF ratio” value was found to be 1.03. Consider U7A U8A G9U U11G C12A C13G, for which the “aptazyme ON/OFF ratio” value was 1.27. The figure for U8A G9C U10A U11A C12G C13A is 1.14; for U7A G9U U11A it is 1.27; for U7G U10A C12G it is 1.22. As to U7G U8A U10C U11A C13G, the “aptazyme ON/OFF ratio” value was 1.23. U7G U8A U10C U11A C13U: the “aptazyme ON/OFF ratio” value worked out at 1.44.

As to U8G G9C U10C U11A C12A C13A, the “aptazyme ON/OFF ratio” value was found to be 1.06.

Turning to U8G G9U U10A U11C C12G C13A, the “aptazyme ON/OFF ratio” value was 1.08. In the case of U8G G9A U10A U11A C12G C13A, the “aptazyme ON/OFF ratio” value was found to be 1.22. Take U7G U8G G9C U11G C12U C13U: the “aptazyme ON/OFF ratio” value amounted to 1.26. In the case of U7G U10A C12A C13G, the “aptazyme ON/OFF ratio” value stood at 1.12. As for U10A U11C C13A, the “aptazyme ON/OFF ratio” value came out at 1.02. The figure for U8A G9U U10C C12A is 1.04; for U7C U8C U10C C12G C13G it is 1.18; for U7C U8C U10C C12G C13A it is 1.24. As for U7A U8C G9A C12A C13U, the figure is 1.16. In the case of U7C U8C G9A U10C C12A C13U, the “aptazyme ON/OFF ratio” value stood at 1.21. The figure for U7A U8C U10C U11G C13A is 1.2. For the variant U7C U8G G9A U10C U11A C12U, the “aptazyme ON/OFF ratio” value was 1.09. Take U7G U8G G9U U11C C13A: the “aptazyme ON/OFF ratio” value is 1.4. Turning to U7A G9A U10C C12U C13U, the “aptazyme ON/OFF ratio” value came to 1.2. Take U7G G9A U10G U11G C12A C13G: the “aptazyme ON/OFF ratio” value is 1.09. In the case of U7A U8C G9U U10A, the “aptazyme ON/OFF ratio” value was 1.4. With G9U U11C C12G C13G, the “aptazyme ON/OFF ratio” value came out at 1.28.

Consider U8G U10A U11A C12U C13G, for which the “aptazyme ON/OFF ratio” value stood at 1.17. As to U8A U10A, the “aptazyme ON/OFF ratio” value was determined as 1.07.

U8C G9A U10C U11C: the “aptazyme ON/OFF ratio” value stood at 1.25. As to U7C C12U C13U, the “aptazyme ON/OFF ratio” value was 1.05. As for U7C U8G G9C C13A, the figure is 1.06.

Take U7A U8A G9A U10A U11A C12A C13U: the “aptazyme ON/OFF ratio” value was found to be 1.34.

As to U8G G9A U10C U11A C12A C13G, the “aptazyme ON/OFF ratio” value amounted to 1.11. Turning to U7A G9A U11A, the “aptazyme ON/OFF ratio” value was found to be 1.46.

Turning to U7G U8C G9C U10A U11C C12A C13A, the “aptazyme ON/OFF ratio” value stood at 1.28. Regarding U7C U8G G9U U10C C12A, the “aptazyme ON/OFF ratio” value worked out at 1.68.

On to U7A U8A G9U U10A U11A C12G C13G, for which the “aptazyme ON/OFF ratio” value turned out to be 1.14. For U7C U8A U10G U11G C12A C13U, the “aptazyme ON/OFF ratio” value came to 1.29. Regarding U8C U11G C12G C13U, the “aptazyme ON/OFF ratio” value stood at 1.11.

As to U8G G9A U11A C12G C13U, the “aptazyme ON/OFF ratio” value is 1.26. For the variant U7A U10G U11A C12U, the “aptazyme ON/OFF ratio” value is 1.13. With U7C U8A G9U U10C U11G C12A, the “aptazyme ON/OFF ratio” value was 1.07. With U7C U8G G9U U10C C13G, the “aptazyme ON/OFF ratio” value worked out at 1.13. As to U7G U8A G9A U10A U11G, the “aptazyme ON/OFF ratio” value was 1.28. Take U7A U10C U11G C12A: the “aptazyme ON/OFF ratio” value was determined as 1.08.
